The values below come from patent publication US20050233963A1.

The assay addresses hsc70 (constitutively expressed form of hsp70) (UniProt P11142). Kind of assay: cell-based or functional assay.

Sequence of hsc70 (constitutively expressed form of hsp70) (P11142 whole entry): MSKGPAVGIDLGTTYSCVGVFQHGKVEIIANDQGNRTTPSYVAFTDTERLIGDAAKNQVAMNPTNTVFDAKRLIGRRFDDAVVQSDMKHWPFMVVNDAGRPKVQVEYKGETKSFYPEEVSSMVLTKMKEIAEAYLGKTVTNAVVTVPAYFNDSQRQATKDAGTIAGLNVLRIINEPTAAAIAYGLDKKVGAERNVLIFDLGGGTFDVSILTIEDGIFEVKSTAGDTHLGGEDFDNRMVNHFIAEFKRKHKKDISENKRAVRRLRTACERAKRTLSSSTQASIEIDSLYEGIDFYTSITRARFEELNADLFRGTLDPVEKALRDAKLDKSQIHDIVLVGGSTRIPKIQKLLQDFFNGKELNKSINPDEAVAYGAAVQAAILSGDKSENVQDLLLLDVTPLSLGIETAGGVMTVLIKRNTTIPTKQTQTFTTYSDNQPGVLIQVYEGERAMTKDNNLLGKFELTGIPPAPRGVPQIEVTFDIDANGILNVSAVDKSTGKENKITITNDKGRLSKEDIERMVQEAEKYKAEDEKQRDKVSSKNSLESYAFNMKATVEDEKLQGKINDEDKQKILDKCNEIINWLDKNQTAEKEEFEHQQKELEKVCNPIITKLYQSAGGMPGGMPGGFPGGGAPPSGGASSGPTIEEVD

Turning to “His-UBP (histidine tagged-UBP) (from UniProt O43765 1-313)”, the decrease in hs70-dependent refolding of luciferase came out at 30%.
